± gives the uncertainty stated by the source.
B1: Homeobox protein SIX6, residues 134 to 184; numbered along this chain, O95475 (parent)
chain: CFKERTRHLLREWYLQDPYPNPSKKRELAQATGLTPTQVGNWFKNRRQRDR

Variants of: B1
Assay: abundance fitness (aPCA) (normalised: wild type 0, dead -1); higher = more abundant; growth selection in yeast, the domain comes from the species named
Settings: Homo sapiens

Abundance fitness, by site and new letter:
E4: R -0.361 ± 0.079, W -0.354 ± 0.063, S -0.276 ± 0.068, I -0.335 ± 0.17, M -0.131 ± 0.15, H -0.587 ± 0.21, L -0.271 ± 0.081, Y -0.012 ± 0.17, D 0.017 ± 0.075, C -0.55 ± 0.24, P -0.741 ± 0.17, G -0.448 ± 0.1, K -0.125 ± 0.14, Q -0.277 ± 0.26, V -0.5 ± 0.095, N -0.03 ± 0.22, F -0.56 ± 0.24, T -0.362 ± 0.068
R7: A 0.033 ± 0.053, K 0.126 ± 0.05, V -0.058 ± 0.062, N -0.138 ± 0.067, C -0.306 ± 0.092, Q 0.02 ± 0.048, T 0.01 ± 0.052, G -0.22 ± 0.057, L 0.051 ± 0.051, I 0.073 ± 0.059, D 0.167 ± 0.097, M 0.073 ± 0.086, S -0.084 ± 0.053, F -0.221 ± 0.099, Y -0.147 ± 0.067, P -0.359 ± 0.07, E 0.236 ± 0.054
P22: A -0.109 ± 0.071, T -0.076 ± 0.14, R -0.634 ± 0.081, C 0.146 ± 0.19, G 0.087 ± 0.068, Q -0.352 ± 0.17, W -0.281 ± 0.15, I -0.618 ± 0.36, E 0.104 ± 0.088, H -0.467 ± 0.11, K -0.833 ± 0.29, S 0.015 ± 0.081, Y -0.424 ± 0.38, V -0.682 ± 0.16, F -0.241 ± 0.1, D 0.307 ± 0.14, L 0.161 ± 0.076
L10: N -0.722 ± 0.42, E -0.741 ± 0.1, W -0.892 ± 0.084, H -0.841 ± 0.1, Q -0.613 ± 0.14, K -0.993 ± 0.12, G -0.983 ± 0.13, M -0.676 ± 0.053, P -0.793 ± 0.17, A -1.02 ± 0.14, S -0.916 ± 0.1, T -0.888 ± 0.089, C -0.608 ± 0.16, V -1.12 ± 0.16, F -0.684 ± 0.19
K3: R -0.118 ± 0.067, Q -0.402 ± 0.13, Y -0.672 ± 0.25, V -0.562 ± 0.098, T 0.201 ± 0.063, S 0.295 ± 0.09, W -0.298 ± 0.081
D17: W -0.912 ± 0.097, R -0.899 ± 0.1, K -0.905 ± 0.074, T -0.914 ± 0.07, F -0.829 ± 0.11, E -0.643 ± 0.15, L -0.794 ± 0.063, C -0.749 ± 0.1, H -0.812 ± 0.064, S -0.706 ± 0.046, Y -0.97 ± 0.09, V -0.934 ± 0.098, I -1.01 ± 0.16, M -0.849 ± 0.1, Q -0.678 ± 0.11, A -0.998 ± 0.081, P -0.852 ± 0.06
S23: H -0.523 ± 0.2, E 0.186 ± 0.1, C -0.444 ± 0.15, F -0.272 ± 0.16, W -0.517 ± 0.14, V -0.35 ± 0.067, D 0.038 ± 0.13, K -0.529 ± 0.092, Q -0.028 ± 0.06, A 0.012 ± 0.077, Y -0.726 ± 0.17, T -0.436 ± 0.14, N -0.175 ± 0.17, G -0.328 ± 0.088, M -0.257 ± 0.1, L -0.276 ± 0.094, I -0.579 ± 0.14, R -0.813 ± 0.1
R11: N 0.27 ± 0.11, E 0.125 ± 0.043, K 0.066 ± 0.074, Q 0.268 ± 0.078, I 0.051 ± 0.059, L 0.008 ± 0.059, M -0.019 ± 0.1, T 0.054 ± 0.071, W -0.129 ± 0.078, H -0.487 ± 0.23, F -0.63 ± 0.14, G -0.119 ± 0.075, Y 0.097 ± 0.11, A -0.379 ± 0.1, D -0.612 ± 0.072, V -0.249 ± 0.064, S -0.077 ± 0.058, P -0.958 ± 0.11
T6: S -0.174 ± 0.057, I 0.36 ± 0.071, C -0.76 ± 0.23, H -0.356 ± 0.16, W -0.182 ± 0.097, F -0.691 ± 0.16, M -0.042 ± 0.066, D -0.45 ± 0.18, N -0.498 ± 0.26, Q -0.168 ± 0.058, G -0.24 ± 0.047, K -0.368 ± 0.084, E -0.619 ± 0.12, A -0.036 ± 0.067, Y -0.45 ± 0.12, L -0.095 ± 0.064, V 0.173 ± 0.045, R -0.3 ± 0.057
L9: M -0.238 ± 0.14, K -0.258 ± 0.13, N -0.827 ± 0.066, G -0.914 ± 0.059, R -0.314 ± 0.072, F -0.213 ± 0.14, W -1.12 ± 0.31, S -0.793 ± 0.061, A -0.387 ± 0.093, D -0.739 ± 0.18, P -0.645 ± 0.061, V -0.328 ± 0.085, H -0.626 ± 0.17, Q -0.35 ± 0.088, T -0.138 ± 0.071, Y -0.283 ± 0.053, E -0.751 ± 0.11, I 0.145 ± 0.12
Y19: S -0.508 ± 0.064, F -0.138 ± 0.068, R -0.177 ± 0.049, K -0.239 ± 0.1, H -0.364 ± 0.19, C -0.469 ± 0.13, W 0.052 ± 0.1, N -0.132 ± 0.085, T -0.088 ± 0.082, L -0.488 ± 0.088, Q -0.414 ± 0.051, A -0.526 ± 0.091, G -0.867 ± 0.097, V -0.625 ± 0.094, I -0.366 ± 0.34, E -0.41 ± 0.06, M -0.312 ± 0.092, P -0.673 ± 0.17
N21: E -0.129 ± 0.2, W -0.817 ± 0.22, F -0.839 ± 0.071, M -0.049 ± 0.26, D 0.218 ± 0.094, Q -0.105 ± 0.076, K -0.417 ± 0.35, T 0.155 ± 0.049, S -0.071 ± 0.098, Y -0.725 ± 0.33, I -0.672 ± 0.47, L -0.149 ± 0.072, C -0.079 ± 0.073, G -0.238 ± 0.1, R -0.437 ± 0.12, A -0.222 ± 0.099, P -0.505 ± 0.4, H 0.337 ± 0.16, V -0.199 ± 0.1
R5: P -0.355 ± 0.19, K -0.263 ± 0.21, G 0.082 ± 0.094, L -0.175 ± 0.07, Q -0.74 ± 0.16, S 0.191 ± 0.051, N -0.075 ± 0.13, D 0.116 ± 0.17, T 0.159 ± 0.12, V -0.315 ± 0.15, I -0.172 ± 0.21, E 0.068 ± 0.099, Y -0.221 ± 0.43, W -0.558 ± 0.16, A -0.377 ± 0.12, M 0.078 ± 0.17
P20: A -0.816 ± 0.073, V -0.613 ± 0.079, M -0.817 ± 0.067, I -0.466 ± 0.23, Q -0.796 ± 0.35, W -1.05 ± 0.16, H -0.693 ± 0.39, C -0.7 ± 0.34, T -0.927 ± 0.44, G -0.887 ± 0.11, R -1.02 ± 0.14, E -0.969 ± 0.25, L -0.411 ± 0.071, Y -0.559 ± 0.37, K -0.797 ± 0.31, S -0.724 ± 0.17
K24: C -0.462 ± 0.14, A -0.009 ± 0.063
Q16: C -0.495 ± 0.29, W -0.727 ± 0.38, Y -0.12 ± 0.32, F -0.27 ± 0.31, M -0.253 ± 0.14, V -0.067 ± 0.1, L 0.421 ± 0.12, A -0.027 ± 0.12, S -0.127 ± 0.056, H -0.406 ± 0.1, R -0.172 ± 0.068, P -0.782 ± 0.15
E12: A -0.427 ± 0.055, G -0.393 ± 0.05, K -0.504 ± 0.14, T -0.33 ± 0.1, D -0.124 ± 0.054, R -0.529 ± 0.05, Y -0.454 ± 0.13, P -1.01 ± 0.14, M -0.204 ± 0.08, I -0.271 ± 0.091, W -0.413 ± 0.097, Q -0.365 ± 0.14, C -0.262 ± 0.063, L -0.458 ± 0.073, N -0.428 ± 0.19, S -0.362 ± 0.093, V -0.389 ± 0.057, H -0.455 ± 0.25
W13: I -0.216 ± 0.13, A -0.003 ± 0.061, V -0.181 ± 0.05, Y -0.319 ± 0.13, K -0.528 ± 0.16, L -0.259 ± 0.045, R -0.608 ± 0.05, E -0.067 ± 0.093, D -0.765 ± 0.074, F -0.251 ± 0.13, P -0.994 ± 0.24, N 0.24 ± 0.12, Q -0.021 ± 0.042, C 0.011 ± 0.11, M -0.121 ± 0.076, G -0.157 ± 0.045, H -0.046 ± 0.12
L15: C 0.49 ± 0.15, N 0.153 ± 0.18, G -0.112 ± 0.072, V 0.037 ± 0.05, F -0.651 ± 0.28, S -0.03 ± 0.063, A 0.023 ± 0.082, D -0.418 ± 0.23, Q -0.025 ± 0.066, R -0.106 ± 0.056, Y -0.185 ± 0.26, I -0.019 ± 0.23, E -0.067 ± 0.087, P -0.922 ± 0.19, K 0.003 ± 0.064
H8: S 0.135 ± 0.033, G -0.1 ± 0.049, C -0.032 ± 0.073
Y14: T -1.06 ± 0.39, Q -0.918 ± 0.1, E -0.788 ± 0.14, H -0.974 ± 0.23, K -0.683 ± 0.19, L -0.634 ± 0.062, S -0.888 ± 0.099, W -0.847 ± 0.19, M -0.825 ± 0.23, G -0.571 ± 0.072, V -0.838 ± 0.095, P -0.983 ± 0.14, A -0.987 ± 0.12, F -0.071 ± 0.06, D -0.882 ± 0.086, I -0.64 ± 0.095, C -0.994 ± 0.13, R -0.821 ± 0.15
P18: T -0.915 ± 0.27, D -0.734 ± 0.11, S -0.458 ± 0.07, E -0.769 ± 0.2, C -0.314 ± 0.12, H -0.442 ± 0.26, I -0.776 ± 0.37, W -0.491 ± 0.12, L -0.968 ± 0.12, A -0.358 ± 0.083, M -0.334 ± 0.067, V -0.822 ± 0.092, F -1.11 ± 0.28, K -0.42 ± 0.1, Q -0.234 ± 0.065, N -0.696 ± 0.32, G -0.824 ± 0.092

Source: the Human Domainome abundance scans (Beltran et al. 2025)
